Key:
Test in all cases: holdup assay
Parameters in all cases: key: below the threshold = too weak to quantify, mostly under pKd 3.1 to 4
[1] = target: MAST3, O60307
[2] = target: T1, MAGI2_1, Q86UL8
T1 sequence (Q86UL8 12-111, limits assumed, looked up): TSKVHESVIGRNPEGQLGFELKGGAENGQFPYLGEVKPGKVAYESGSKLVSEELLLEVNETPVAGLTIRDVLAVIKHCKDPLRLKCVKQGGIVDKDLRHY

[3] = target: T2, MPDZ_3, O75970
T2 sequence (O75970 372-473, limits assumed, looked up): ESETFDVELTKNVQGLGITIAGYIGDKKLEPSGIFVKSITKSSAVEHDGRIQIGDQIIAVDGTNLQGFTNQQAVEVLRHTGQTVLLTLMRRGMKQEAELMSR

[4] = target: MAGI3_6, Q5TCQ9
MAGI3_6, Q5TCQ9, sequence (Q5TCQ9 1014-1103): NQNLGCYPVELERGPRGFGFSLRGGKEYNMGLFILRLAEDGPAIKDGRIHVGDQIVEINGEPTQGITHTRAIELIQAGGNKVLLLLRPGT

[5] = target: T3, SHANK3, Q9BYB0
T3 sequence (Q9BYB0 641-750, limits assumed, looked up): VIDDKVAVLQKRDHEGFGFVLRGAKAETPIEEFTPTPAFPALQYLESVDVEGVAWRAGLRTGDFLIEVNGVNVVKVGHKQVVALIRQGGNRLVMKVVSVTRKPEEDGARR

[6] = target: DLG5_2, Q8TDM6
DLG5_2, Q8TDM6, sequence (Q8TDM6 714-800): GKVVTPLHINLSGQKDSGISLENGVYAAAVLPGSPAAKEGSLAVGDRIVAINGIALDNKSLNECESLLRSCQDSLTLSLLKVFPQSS

[7] = target: T4, PDZD4, Q76G19
T4 sequence (Q76G19 125-224, limits assumed, looked up): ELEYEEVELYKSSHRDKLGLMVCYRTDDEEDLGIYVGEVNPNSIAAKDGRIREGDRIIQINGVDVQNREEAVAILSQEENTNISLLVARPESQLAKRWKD

[8] = target: T5, PDZD7_1, Q9H5P4
T5 sequence (Q9H5P4 81-178, limits assumed, looked up): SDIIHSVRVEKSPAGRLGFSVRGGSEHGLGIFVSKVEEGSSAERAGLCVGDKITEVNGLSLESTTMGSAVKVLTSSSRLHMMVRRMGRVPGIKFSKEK

[9] = target: MAGIX, Q9H6Y5
MAGIX, Q9H6Y5, sequence (Q9H6Y5 118-211): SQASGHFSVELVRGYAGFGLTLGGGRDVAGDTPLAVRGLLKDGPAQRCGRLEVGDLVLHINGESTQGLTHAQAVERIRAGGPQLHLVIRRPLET

[10] = target: T6, PTPN4, P29074
T6 sequence (P29074 512-599, limits assumed, looked up): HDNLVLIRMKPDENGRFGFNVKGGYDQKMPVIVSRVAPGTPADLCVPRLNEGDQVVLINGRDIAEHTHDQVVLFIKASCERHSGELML

[11] = target: T7, SIPA1L3, O60292
T7 sequence (O60292 961-1052, limits assumed, looked up): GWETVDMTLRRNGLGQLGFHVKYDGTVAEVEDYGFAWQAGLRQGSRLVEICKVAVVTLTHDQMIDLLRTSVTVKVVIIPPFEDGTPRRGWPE

[12] = target: MAGI3_4, Q5TCQ9
MAGI3_4, Q5TCQ9, sequence (Q5TCQ9 716-815): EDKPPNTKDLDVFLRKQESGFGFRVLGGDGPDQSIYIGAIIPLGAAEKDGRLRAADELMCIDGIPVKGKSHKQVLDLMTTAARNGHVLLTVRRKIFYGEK

[13] = target: SCRIB_4, Q14160
SCRIB_4, Q14160, sequence (Q14160 1095-1204): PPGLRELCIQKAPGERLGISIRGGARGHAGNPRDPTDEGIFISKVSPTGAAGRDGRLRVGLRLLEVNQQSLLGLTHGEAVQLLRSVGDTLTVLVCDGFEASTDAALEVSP

[14] = target: PARD3B_3, Q8TEW8
PARD3B_3, Q8TEW8, sequence (Q8TEW8 490-594): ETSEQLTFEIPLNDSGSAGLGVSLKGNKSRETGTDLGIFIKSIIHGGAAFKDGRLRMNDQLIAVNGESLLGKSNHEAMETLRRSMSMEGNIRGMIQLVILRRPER

[15] = target: T8, TJP3_1, O95049
T8 sequence (O95049 6-103, limits assumed, looked up): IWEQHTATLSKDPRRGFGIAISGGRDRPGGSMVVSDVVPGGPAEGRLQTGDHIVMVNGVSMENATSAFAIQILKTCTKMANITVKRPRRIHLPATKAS

[16] = target: Inadl_7, Q8NI35
Inadl_7, Q8NI35, sequence (Q8NI35 1219-1332): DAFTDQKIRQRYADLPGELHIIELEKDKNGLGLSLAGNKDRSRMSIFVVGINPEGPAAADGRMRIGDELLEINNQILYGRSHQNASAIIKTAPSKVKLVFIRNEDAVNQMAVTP

[17] = target: MAGI1_5, Q96QZ7
MAGI1_5, Q96QZ7, sequence (Q96QZ7 986-1098): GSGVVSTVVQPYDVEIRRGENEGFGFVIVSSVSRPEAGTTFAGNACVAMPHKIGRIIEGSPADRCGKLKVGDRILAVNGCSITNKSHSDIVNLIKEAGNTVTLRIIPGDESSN

[18] = target: T9, MPP5, Q8N3R9
T9 sequence (Q8N3R9 251-346, limits assumed, looked up): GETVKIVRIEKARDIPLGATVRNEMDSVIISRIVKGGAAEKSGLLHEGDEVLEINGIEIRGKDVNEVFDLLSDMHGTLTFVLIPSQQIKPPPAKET

[19] = target: T10, DVL1, O14640
T10 sequence (O14640 246-333, limits assumed, looked up): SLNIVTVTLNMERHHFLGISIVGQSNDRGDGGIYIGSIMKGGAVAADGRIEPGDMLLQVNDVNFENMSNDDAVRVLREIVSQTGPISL

[20] = target: AHNAK2, Q8IVF2
AHNAK2, Q8IVF2, sequence (Q8IVF2 108-193): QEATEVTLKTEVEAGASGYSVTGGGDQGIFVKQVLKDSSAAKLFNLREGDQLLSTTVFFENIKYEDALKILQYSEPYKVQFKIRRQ

[21] = target: GRIP2_2, Q9C0E4
GRIP2_2, Q9C0E4, sequence (Q9C0E4 137-245): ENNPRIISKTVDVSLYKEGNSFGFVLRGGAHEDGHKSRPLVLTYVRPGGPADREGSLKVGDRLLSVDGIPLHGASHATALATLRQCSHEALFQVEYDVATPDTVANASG

[22] = target: NHERF4_3, Q86UT5
NHERF4_3, Q86UT5, sequence (Q86UT5 325-412): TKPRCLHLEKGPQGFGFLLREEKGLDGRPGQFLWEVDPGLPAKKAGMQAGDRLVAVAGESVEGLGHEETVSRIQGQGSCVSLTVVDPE

[23] = target: T11, PDZD2_1, O15018
T11 sequence (O15018 80-192, limits assumed, looked up): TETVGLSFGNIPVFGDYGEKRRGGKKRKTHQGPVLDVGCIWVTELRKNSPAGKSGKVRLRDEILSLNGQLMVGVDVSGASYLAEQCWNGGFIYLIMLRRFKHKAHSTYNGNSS

[24] = target: T12, PTPN13_4, Q12923
T12 sequence (Q12923 1783-1878, limits assumed, looked up): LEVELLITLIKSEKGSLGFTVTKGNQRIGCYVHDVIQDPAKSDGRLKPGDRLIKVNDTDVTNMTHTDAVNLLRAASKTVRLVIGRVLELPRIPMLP

[25] = target: CARD14, Q9BXL6
CARD14, Q9BXL6, sequence (Q9BXL6 558-663): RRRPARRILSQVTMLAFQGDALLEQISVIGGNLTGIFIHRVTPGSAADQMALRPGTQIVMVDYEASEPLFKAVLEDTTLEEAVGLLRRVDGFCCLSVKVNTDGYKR

[26] = plain residues with an end cap or a label only (N-terminal biotin on a linker: none)
[27] = plain residues with an end cap or a label only (N-terminal biotin on a linker: ttds)

MAST3, O60307, sequence (O60307 945-1048): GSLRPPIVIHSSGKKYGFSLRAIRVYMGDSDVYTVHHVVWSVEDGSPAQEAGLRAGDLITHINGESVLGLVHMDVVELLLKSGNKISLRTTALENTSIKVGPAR

DSKPPLPPDEWV [MERS-E, K9N5R3]
pKd [1, 26]: below the threshold | pKd [2, 26]: below the threshold | pKd [3, 26]: below the threshold | pKd [4, 26]: 4.03 | pKd [5, 26]: below the threshold | pKd [6, 26]: 4 | pKd [7, 26]: below the threshold | pKd [8, 26]: below the threshold | pKd [9, 26]: below the threshold | pKd [10, 26]: below the threshold | pKd [11, 26]: 3.73 | pKd [12, 26]: below the threshold | pKd [13, 26]: 3.92 | pKd [14, 26]: below the threshold | pKd [15, 26]: 4.19 | pKd [16, 26]: below the threshold | pKd [17, 26]: below the threshold | pKd [18, 26]: 4.03 | pKd [19, 26]: below the threshold | pKd [20, 26]: below the threshold | pKd [21, 26]: below the threshold | pKd [22, 26]: below the threshold | pKd [23, 26]: below the threshold | pKd [24, 26]: 4.11 | pKd [25, 26]: below the threshold

RTRQRNETQV [HPV51-E6, P26554]
pKd [1, 27]: below the threshold | pKd [2, 27]: below the threshold | pKd [3, 27]: below the threshold | pKd [4, 27]: below the threshold | pKd [5, 27]: below the threshold | pKd [6, 27]: 4.63 | pKd [7, 27]: below the threshold | pKd [8, 27]: below the threshold | pKd [9, 27]: below the threshold | pKd [10, 27]: below the threshold | pKd [11, 27]: below the threshold | pKd [12, 27]: below the threshold | pKd [13, 27]: 4.27 | pKd [14, 27]: below the threshold | pKd [15, 27]: below the threshold | pKd [16, 27]: below the threshold | pKd [17, 27]: below the threshold | pKd [18, 27]: below the threshold | pKd [19, 27]: 4.86 | pKd [20, 27]: below the threshold | pKd [21, 27]: below the threshold | pKd [22, 27]: below the threshold | pKd [23, 27]: below the threshold | pKd [24, 27]: below the threshold | pKd [25, 27]: 4.34

HRTCYLVTQL [ASIC3, Q9UHC3]
pKd [1, 27]: 4.04 | pKd [2, 27]: 4.01 | pKd [3, 27]: 4.04 | pKd [4, 27]: below the threshold | pKd [5, 27]: 5.52 | pKd [6, 27]: below the threshold | pKd [7, 27]: below the threshold | pKd [8, 27]: below the threshold | pKd [9, 27]: below the threshold | pKd [10, 27]: below the threshold | pKd [11, 27]: below the threshold | pKd [12, 27]: below the threshold | pKd [13, 27]: below the threshold | pKd [14, 27]: below the threshold | pKd [15, 27]: below the threshold | pKd [16, 27]: 4.05 | pKd [17, 27]: 5.13 | pKd [18, 27]: below the threshold | pKd [19, 27]: below the threshold | pKd [20, 27]: below the threshold | pKd [21, 27]: 4.28 | pKd [22, 27]: 4.13 | pKd [23, 27]: below the threshold | pKd [24, 27]: below the threshold | pKd [25, 27]: below the threshold
